Reference: article PMC12292289, “Identification of a Novel Antibacterial Function of Mammalian Calreticulin” (Biomolecules, 2025)

What was measured:
[1] = target: recombinant goat calreticulin (Capra hircus (goat)); test: SEC; SEC-HPLC of the purified recombinant protein; retention time compared with that of standards (Figure S1)
[2] = target: the molecule itself; test: as above

| Molecule | stoichiometry N [1] | stoichiometry N [2] |
| --- | --- | --- |
| recombinant goat calreticulin (natural protein) | 2 | – |
| recombinant human calreticulin (natural protein, UniProt P27797 18-417, looked up, calreticulin, human; bought recombinant protein (Sino Biological, P27797); P27797 is printed where the reagent list gives catalogue numbers; also called recombinant human calreticulin expressed in HEK293 cells; source: bought: Sino Biological; expressed in HEK293 cells) EPAVYFKEQFLDGDGWTSRWIESKHKSDFGKFVLSSGKFYGDEEKDKGLQTSQDARFYALSASFEPFSNKGQTLVVQFTVKHEQNIDCGGGYVKLFPNSLDQTDMHGDSEYNIMFGPDICGPGTKKVHVIFNYKGKNVLINKDIRCKDDEFTHLYTLIVRPDNTYEVKIDNSQVESGSLEDDWDFLPPKKIKDPDASKPEDWDERAKIDDPTDSKPEDWDKPEHIPDPDAKKPEDWDEEMDGEWEPPVIQNPEYKGEWKPRQIDNPDYKGTWIHPEIDNPEYSPDPSIYAYDNFGVLGLDLWQVKSGTIFDNFLITNDEAYAEEFGNETWGVTKAAEKQMKDKQDEEQRLKEEEEDKKRKEEEEAEDKEDDEDKDEDEEDEEDKEEDEEEDVPGQAKDEL | – | 2 |
